Results on 2 molecules are retold here after article PMC6735921.

Read-outs that look alike come from different tables or passages of the source.

Series [1] concerns the target T1, VEGF165 (VEGF-A isoform 165) (UniProt P15692-4 27-191). The series can be described thus: EMSA.
The target in series [2] is T1, VEGF165 (VEGF-A isoform 165). The series can be described thus: EMSA. The source holds these as a separate data set.

B1: V7t1 not-annealed (about 73% dimer, 26% monomer) (structured_DNA)
DNA: TGTGGGGGTGGACGGGCCGGGTAGA
Consider B1, for which, in series [1], the binding result is given as “binds”.

B2: V7t1 dimer (purified SE-HPLC peak 1) (structured_DNA)
DNA: TGTGGGGGTGGACGGGCCGGGTAGA
As to B2, the binding result in series [2] was “binds”.
